Substrate in the data set: Nc1c(Cl)cccc1-c1cc[nH]c1
In words: purified protein. In kind it is biochemical, Pseudomonas fluorescens. The following applies: E. coli Fre 2.5 μM, FAD 1 μM, MgCl2 10 mM, NADH 2.5 mM, 20 mM Tris pH 7.4, PrnC 2.5 μM, chlorination.

B1: PrnC (NT11-PrnC-6His; native PrnC) (Pseudomonas fluorescens) (protein)
chain: MTQKSPANEHDSNHFDVIILGSGMSGTQMGAILAKQQFRVLIIEESSHPRFTIGESSIPETSLMNRIIADRYGIPELDHITSFYSTQRYVASSTGIKRNFGFVFHKPGQEHDPKEFTQCVIPELPWGPESHYYRQDVDAYLLQAAIKYGCKVHQKTTVTEYHADKDGVAVTTAQGERFTGRYMIDCGGPRAPLATKFKLREEPCRFKTHSRSLYTHMLGVKPFDDIFKVKGQRWRWHEGTLHHMFEGGWLWVIPFNNHPRSTNNLVSVGLQLDPRVYPKTDISAQQEFDEFLARFPSIGAQFRDAVPVRDWVKTDRLQFSSNACVGDRYCLMLHANGFIDPLFSRGLENTAVTIHALAARLIKALRDDDFSPERFEYIERLQQKLLDHNDDFVSCCYTAFSDFRLWDAFHRLWAVGTILGQFRLVQAHARFRASRNEGDLDHLDNDPPYLGYLCADMEEYYQLFNDAKAEVEAVSAGRKPADEAAARIHALIDERDFAKPMFGFGYCITGDKPQLNNSKYSLLPAMRLMYWTQTRAPAEVKKYFDYNPMFALLKAYITTRIGLALKK
notes: N-terminal 11-residue NT11 solubility tag and C-terminal 6His tag, pET-28a(+), expressed in E. coli T7 Express, Ni-NTA purified; dimer by cryo-EM
On to B1, for which the Km was found to be 15.8 ± 0.7 µM and the kcat came to 0.46 min⁻¹.

The Km is the substrate concentration at which the rate is half of its maximum. A word on the kcat: it is the number of substrate molecules converted per active site and unit of time at saturation.

For the origin of these results see PMC10770391, “Site-selective chlorination of pyrrolic heterocycles by flavin dependent enzyme PrnC” (Communications Chemistry, 2024).
